In PMC12455584 one finds binding data, which are given here for 1 sequence.

The target in the series is T1, scIHF-His (single-chain IHF, ihfA-linker-ihfB-6xHis) internal_change (Salmonella enterica serovar Typhimurium 14028s?) (UniProt P0A1S0).
T1 sequence: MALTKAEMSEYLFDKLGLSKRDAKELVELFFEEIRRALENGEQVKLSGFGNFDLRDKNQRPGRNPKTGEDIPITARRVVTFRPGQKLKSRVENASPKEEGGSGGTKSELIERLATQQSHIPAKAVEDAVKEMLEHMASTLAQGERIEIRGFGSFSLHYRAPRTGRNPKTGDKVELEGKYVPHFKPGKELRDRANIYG
In words: EMSA. As to conditions: EMSA: 25 mM Tris pH 8, 75 mM NaCl, 10% glycerol, 0.5 mM DTT, 0.5 mM EDTA, 1 ug poly(dIdC), 0.1 mg/ml BSA, 0.87 pmol DNA in 20 ul, 37 C 10 min; gel 4-15% PAGE ….

For the sequence “CCCTCGTGTACCATTGTTTACTTTTTGATCTAAAAATTACATCAAATGAACACAAAAAACGGTATAAAAAACGCTC (double strand) [intA promoter IHF BS(+)]”, the binding result is “binds”.
